These results are taken from patent US20150283263A1 (ADC THERAPEUTICS S A, published 2015).

Test [1] addresses T1, CD25 (human, UniProt P01589 22-272).
T1 construct: whole, on cells; Endogenous CD25 on cell lines; also called surface CD25 on Karpas299 and SU-DHL-1 cells
T1 sequence (looked up): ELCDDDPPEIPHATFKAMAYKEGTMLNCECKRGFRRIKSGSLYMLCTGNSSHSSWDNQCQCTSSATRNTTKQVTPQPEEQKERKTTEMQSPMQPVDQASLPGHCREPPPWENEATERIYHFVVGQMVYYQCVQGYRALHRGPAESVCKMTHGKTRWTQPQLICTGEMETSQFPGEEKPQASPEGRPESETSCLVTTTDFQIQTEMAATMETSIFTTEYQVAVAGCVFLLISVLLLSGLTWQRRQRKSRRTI
Description: flow cytometry on SU-DHL-1 cells (surface CD25), average of four experiments. As to the method: (§1) Karpas299 and SU-DHL-1 anaplastic large cell lymphoma (ALCL)-derived cell lines have been previously reported to express CD25 (2,3). To confirm their expression profile, CD25 surface expression was analyzed by flow cytometry.
(§2) Surface CD25 expression on Karpas and SU-DHL-1 was determined by flow cytometry. Graphs represent the average of three (Karpas299) or four independent experiments (SU-DHL-1). EC₅₀ values are reported in ng/ml.
For orientation: A flow cytometer gives signals particle by particle.

Test [2] has as its target T1, CD25. Description: flow cytometry on Karpas299 cells (surface CD25), average of three experiments. How it is done:
as §1, §2

B1: HuMax-TAC (antibody, IgG1, V domains shown)
VH: QVQLVQSGAEVKKPGSSVKVSCKASGGTFSRYIINWVRQAPGQGLEWMGRIIPILGVENYAQKFQGRVTITADKSTSTAYMELSSLRSEDTAVYYCARKDWFDYWGQGTLVTVSS
VL: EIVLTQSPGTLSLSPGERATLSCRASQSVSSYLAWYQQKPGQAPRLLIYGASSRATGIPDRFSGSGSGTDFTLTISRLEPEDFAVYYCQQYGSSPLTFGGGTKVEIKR
notes: also called AB12; Antibody AB12
On to B1, for which the EC50 with CD25 [1] came out at 0.0341 µg/mL; with CD25 [2], 0.0202 µg/mL.

As a reminder, the EC50 is the concentration at which the effect is half-maximal.
